From patent US20150175665A1 (IPSEN PHARMA S A S, published 2015)
[ ]: non-standard residue; d: D form. The star is where a group is joined. Desaminotyrosyl = O=C(CCc1ccc(O)cc1)*; Hyp = O=C(O)[C@@H]1C[C@@H](O)CN1; Pip = O=C(O)[C@@H]1CCCCN1; Ac6c = NC1(C(=O)O)CCCCC1

T1: human recombinant GIP receptor (human, UniProt P48546 22-466)
T1 construct: whole, on cells; Assayed as washed membranes of CHO-K1 cells expressing the receptor; also called hGIP receptor
T1 sequence (looked up): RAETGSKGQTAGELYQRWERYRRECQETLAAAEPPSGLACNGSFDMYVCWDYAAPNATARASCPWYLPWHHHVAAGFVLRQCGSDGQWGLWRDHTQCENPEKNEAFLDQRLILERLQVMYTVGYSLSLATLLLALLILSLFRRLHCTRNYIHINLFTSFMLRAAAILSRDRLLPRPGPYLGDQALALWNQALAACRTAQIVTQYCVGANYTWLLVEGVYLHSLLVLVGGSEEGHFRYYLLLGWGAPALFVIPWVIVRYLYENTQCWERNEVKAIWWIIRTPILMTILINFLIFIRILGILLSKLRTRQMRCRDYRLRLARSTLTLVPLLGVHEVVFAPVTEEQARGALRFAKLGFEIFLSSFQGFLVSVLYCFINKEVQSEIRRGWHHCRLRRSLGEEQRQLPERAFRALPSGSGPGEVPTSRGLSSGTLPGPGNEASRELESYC


What follows are binders tested against T1, human recombinant GIP receptor (assay: displacement of [125I]GIP, membranes of CHO-K1 cells expressing human GIP receptor).
Protocol: Membranes for in vitro receptor binding assays were prepared by homogenizing the CHO—K1 clonal cells expressing the human recombinant GIP receptor, with a Brinkman Polytron (setting 6, 15 sec), in ice-cold 50 mM Tris-HCl and then subjected to two centrifugations at 39,000 g for 10 minutes, with a resuspension in fresh buffer in between. For the assay, aliquots of the washed membrane preparations were incubated (100 minutes at 25° C. with 0.05 nM [¹²⁵1]GIP (2200 Ci/mmol) in 50 mM Tris-HCl, 0.1 mg/ml bacitracin, and 0.1% BSA. The final assay volume was 0.5 ml. The incubations were terminated by rapid filtration through GF/C filters (pre-soaked in 0.5% polyethylenimine) using a Brandel filtration manifold. Each tube and filter were then washed three times with 5-ml aliquots of ice-cold buffer.
Specific binding was defined as the total radioligand bound minus that bound in the presence of 1000 nM GIP.

Binder	Ki [nM]
FXEGTFISDYXIAMDKIHQQDFVNWLLAQKGKKNDWKHNITQH (4CN-Phe at 1; Aib at 2; A5c at 11) [(4CN-Phe^1, Aib^2, A5c^11, His^43)hGIP(1-43)-OH]	5.12
XXEGTFISDYXIAMDKIHQQDFVNWLLAQKGKKNDWKHNITQH (hTyr at 1; Aib at 2; A5c at 11) [(hTyr^1, Aib^2, A5c^11, His^43)hGIP(1-43)-OH]	9.42
[Desaminotyrosyl]A[Pip]GTF[Ac6c]SDYSIAMDKIHQQDFVNWLLAQKGKKNDWKHNITQ-OH [(4Hppa^1, hPro^3, A6c^7)hGIP(1-42)-OH]	707
[Desaminotyrosyl]A[Hyp]GTF[Ac6c]SDYSIAMDKIHQQDFVNWLLAQKGKKNDWKHNITQ-OH [(4Hppa^1, 4Hyp^3, A6c^7)hGIP(1-42)-OH]	251

Stronger by Ki, values ahead:

Ki [nM]	Binder
4.82	XXEGTFISDYXIAMDKIHQQDFVNWLLAQKGKKNDWKHNITQH (7HO-Tic at 1; Aib at 2; A5c at 11) [(7HO-Tic^1, Aib^2, A5c^11, His^43)hGIP(1-43)-OH]
1.58	XXEGTFISDYSIAMDKIHQQDFVNWLLAQK (4Hppa at 1; Aib at 2; C-terminal amide) [(4Hppa^1, Aib^2)hGIP(1-30)-NH2]
2.95	XXEGTFISDYSIAXDKIHQQDFVNWLLAQK (4Hppa at 1; Aib at 2; Nle at 14; C-terminal amide) [(4Hppa^1, Aib^2, Nle^14)hGIP(1-30)-NH2]
